Target: T1, mouse VEGF (PR-1578904) (mouse, UniProt Q00731 205-392)
T1 construct: also called mVEGF164
T1 chain: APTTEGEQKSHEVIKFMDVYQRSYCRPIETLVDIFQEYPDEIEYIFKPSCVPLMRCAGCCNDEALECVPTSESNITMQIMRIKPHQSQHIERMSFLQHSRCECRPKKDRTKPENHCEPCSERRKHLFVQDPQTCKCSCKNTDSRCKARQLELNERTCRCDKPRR
Assay: SPR (Biacore), mAb captured by anti-human Fc, antigen injected
Experimental: Unreacted moieties on the biosensor surface were blocked with ethanolamine. For kinetic analysis, rate equations derived from the 1:1 Langmuir binding model were fitted simultaneously to multiple antigen injections (using global fit analysis) with the use of Scrubber 2 (BioLogic Software), Biacore Biaevaluation 4.0.1 software or Biacore T100 Evaluation software. Purified antibodies or DVD-Ig molecules were diluted in running buffer for capture across goat anti-human Fc reaction surfaces. Antibodies or DVD-Ig molecules to be captured as a ligand (1 μg/ml) were injected over reaction matrices at a flow rate of 10 μl/minute. During the assay, all measurements were referenced against the capture surface alone (i.e., with no captured antibody or DVD-Ig molecule). […] The equilibrium dissociation constant KD (M) of the reaction between antibodies and the target antigen was then calculated from the kinetic rate constants by the following formula: KD=Koff/Kₒₙ. Binding was recorded as a function of time and kinetic rate constants were calculated. In this assay, on-rates as fast as 10⁶M⁻¹s⁻¹ and off-rates as slow as 10⁻⁶ s⁻¹ could be measured.

B1: AB014 (Avastin), PR-1545939 (antibody, V domains shown)
VH: EVQLVESGGGLVQPGGSLRLSCAASGYTFTNYGMNWVRQAPGKGLEWVGWINTYTGEPTYAADFKRRFTFSLDTSKSTAYLQMNSLRAEDTAVYYCAKYPHYYGSSHWYFDVWGQGTLVTVSS
VL: DIQMTQSPSSLSASVGDRVTITCSASQDISNYLNWYQQKPGKAPKVLIYFTSSLHSGVPSRFSGSGSGTDFTLTISSLQPEDFATYYCQQYSTVPWTFGQGTKVEIK
notes: Anti-VEGF-A mAb
binding result: no binding
